According to patent US20120178668A1:

How the values were obtained:
Assay in all cases: cell-based or functional assay
rat GC-A (rat) = rat GC-A (rat) (UniProt P18910)
[1] = target: Natriuretic Peptide Receptor-A (NPR-A) of MDCK cells (canine (endogenous in MDCK cells))
NPR-C (rat) = target: T1, NPR-C (rat) (UniProt P41740)
T1 sequence: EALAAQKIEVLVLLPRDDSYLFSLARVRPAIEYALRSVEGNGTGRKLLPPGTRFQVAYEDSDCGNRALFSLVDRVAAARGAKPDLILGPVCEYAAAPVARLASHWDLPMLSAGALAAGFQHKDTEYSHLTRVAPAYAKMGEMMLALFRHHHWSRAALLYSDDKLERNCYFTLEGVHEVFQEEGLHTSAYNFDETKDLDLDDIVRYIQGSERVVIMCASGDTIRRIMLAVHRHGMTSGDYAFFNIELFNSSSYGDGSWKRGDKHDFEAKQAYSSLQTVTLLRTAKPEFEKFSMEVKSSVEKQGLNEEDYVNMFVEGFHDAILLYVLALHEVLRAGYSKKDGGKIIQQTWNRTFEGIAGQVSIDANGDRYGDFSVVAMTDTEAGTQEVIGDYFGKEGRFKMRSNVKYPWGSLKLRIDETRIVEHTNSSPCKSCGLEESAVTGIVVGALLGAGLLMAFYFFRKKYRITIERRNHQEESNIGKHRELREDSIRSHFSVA

NPR-A of HeLa cells = NPR-A of HeLa cells (UniProt P16066)
[2] = target: T2, NPR-A of HeLa cells, P16066
T2 chain: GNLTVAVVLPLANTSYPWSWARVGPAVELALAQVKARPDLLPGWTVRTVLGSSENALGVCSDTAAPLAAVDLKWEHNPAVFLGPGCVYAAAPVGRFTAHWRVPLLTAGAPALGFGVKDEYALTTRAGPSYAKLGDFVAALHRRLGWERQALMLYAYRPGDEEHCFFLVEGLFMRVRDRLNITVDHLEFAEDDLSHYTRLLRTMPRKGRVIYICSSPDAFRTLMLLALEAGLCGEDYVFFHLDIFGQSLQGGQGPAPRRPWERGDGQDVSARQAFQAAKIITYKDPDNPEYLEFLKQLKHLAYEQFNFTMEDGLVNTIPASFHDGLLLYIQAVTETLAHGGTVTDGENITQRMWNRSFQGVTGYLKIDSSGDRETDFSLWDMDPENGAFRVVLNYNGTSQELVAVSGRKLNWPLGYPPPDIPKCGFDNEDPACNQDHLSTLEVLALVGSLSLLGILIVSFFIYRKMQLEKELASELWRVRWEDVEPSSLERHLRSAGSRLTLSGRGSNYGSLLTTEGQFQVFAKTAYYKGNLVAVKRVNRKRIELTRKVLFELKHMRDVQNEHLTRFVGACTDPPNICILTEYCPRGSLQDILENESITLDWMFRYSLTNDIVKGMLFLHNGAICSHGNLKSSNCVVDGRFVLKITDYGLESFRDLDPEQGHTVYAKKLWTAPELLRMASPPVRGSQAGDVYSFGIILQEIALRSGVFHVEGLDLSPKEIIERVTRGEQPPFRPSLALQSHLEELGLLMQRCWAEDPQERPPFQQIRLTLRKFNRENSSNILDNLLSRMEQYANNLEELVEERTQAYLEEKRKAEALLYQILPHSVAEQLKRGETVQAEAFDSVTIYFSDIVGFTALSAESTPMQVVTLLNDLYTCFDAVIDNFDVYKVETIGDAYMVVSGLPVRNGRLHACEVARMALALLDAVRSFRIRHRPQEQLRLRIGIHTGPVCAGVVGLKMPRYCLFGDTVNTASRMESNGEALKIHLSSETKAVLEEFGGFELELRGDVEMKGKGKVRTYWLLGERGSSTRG

NPR-C (rat), P41740 = target: T3, NPR-C (rat), P41740
T3 chain: T1 sequence

[3] = target: T4, Natriuretic Peptide Receptor-A (NPR-A) of MDCK cells (canine (endogenous in MDCK cells)), A0A8I3
T4 chain: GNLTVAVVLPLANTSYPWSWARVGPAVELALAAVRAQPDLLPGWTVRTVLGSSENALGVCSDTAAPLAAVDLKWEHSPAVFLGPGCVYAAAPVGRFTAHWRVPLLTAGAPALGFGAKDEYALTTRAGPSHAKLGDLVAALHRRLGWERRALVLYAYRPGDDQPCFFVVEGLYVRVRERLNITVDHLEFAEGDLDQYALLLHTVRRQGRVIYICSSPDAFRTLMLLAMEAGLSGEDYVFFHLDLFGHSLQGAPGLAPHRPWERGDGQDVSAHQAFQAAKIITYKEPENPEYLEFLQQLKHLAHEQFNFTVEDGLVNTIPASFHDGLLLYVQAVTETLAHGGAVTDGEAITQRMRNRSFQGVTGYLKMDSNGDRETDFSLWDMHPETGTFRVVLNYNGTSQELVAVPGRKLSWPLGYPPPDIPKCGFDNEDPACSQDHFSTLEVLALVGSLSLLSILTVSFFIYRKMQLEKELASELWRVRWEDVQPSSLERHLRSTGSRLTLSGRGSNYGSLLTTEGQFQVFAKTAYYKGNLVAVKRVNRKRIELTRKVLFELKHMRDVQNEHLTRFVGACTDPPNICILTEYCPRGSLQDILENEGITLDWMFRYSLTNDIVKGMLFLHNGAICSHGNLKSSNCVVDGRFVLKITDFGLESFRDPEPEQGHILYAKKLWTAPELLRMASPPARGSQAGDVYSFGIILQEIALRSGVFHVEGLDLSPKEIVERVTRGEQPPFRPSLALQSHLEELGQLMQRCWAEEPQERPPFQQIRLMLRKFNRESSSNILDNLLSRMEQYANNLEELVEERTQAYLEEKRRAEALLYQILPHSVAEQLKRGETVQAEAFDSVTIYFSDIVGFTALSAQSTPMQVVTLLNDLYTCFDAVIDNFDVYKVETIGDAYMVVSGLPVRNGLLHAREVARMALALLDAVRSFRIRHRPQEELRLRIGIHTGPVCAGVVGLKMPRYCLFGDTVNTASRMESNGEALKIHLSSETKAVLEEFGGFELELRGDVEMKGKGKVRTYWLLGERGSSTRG

rat GC-A (rat), P18910 = target: T5, rat GC-A (rat), P18910
T5 chain: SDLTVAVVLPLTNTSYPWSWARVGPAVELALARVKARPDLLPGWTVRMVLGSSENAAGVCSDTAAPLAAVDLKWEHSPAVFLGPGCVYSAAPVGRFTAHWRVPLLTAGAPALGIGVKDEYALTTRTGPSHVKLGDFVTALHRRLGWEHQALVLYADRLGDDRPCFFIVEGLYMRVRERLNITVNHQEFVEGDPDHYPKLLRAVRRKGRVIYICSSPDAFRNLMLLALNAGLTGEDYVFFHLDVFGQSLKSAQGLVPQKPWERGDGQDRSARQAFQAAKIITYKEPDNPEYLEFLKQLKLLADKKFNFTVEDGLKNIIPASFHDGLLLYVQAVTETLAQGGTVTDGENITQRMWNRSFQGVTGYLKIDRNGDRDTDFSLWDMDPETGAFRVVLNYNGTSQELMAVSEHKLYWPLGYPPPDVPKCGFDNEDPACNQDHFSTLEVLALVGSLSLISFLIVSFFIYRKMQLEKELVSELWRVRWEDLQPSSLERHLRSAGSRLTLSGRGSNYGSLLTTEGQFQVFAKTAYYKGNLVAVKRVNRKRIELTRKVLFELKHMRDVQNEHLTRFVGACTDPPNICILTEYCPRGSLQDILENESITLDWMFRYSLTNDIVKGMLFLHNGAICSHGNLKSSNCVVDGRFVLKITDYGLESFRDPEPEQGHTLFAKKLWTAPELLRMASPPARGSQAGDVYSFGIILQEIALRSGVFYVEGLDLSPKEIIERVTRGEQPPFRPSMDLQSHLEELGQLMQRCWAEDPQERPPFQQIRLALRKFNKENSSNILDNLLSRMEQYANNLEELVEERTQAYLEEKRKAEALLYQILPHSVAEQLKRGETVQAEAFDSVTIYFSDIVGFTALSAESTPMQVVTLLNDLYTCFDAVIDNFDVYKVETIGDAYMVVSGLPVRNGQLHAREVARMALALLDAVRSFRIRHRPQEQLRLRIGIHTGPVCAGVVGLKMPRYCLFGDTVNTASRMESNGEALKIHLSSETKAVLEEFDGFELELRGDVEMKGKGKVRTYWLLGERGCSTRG

| Molecule | mean relaxation of denuded aortic rings, % of KCl response (% of KCl response) (rat GC-A (rat)) | -Log10 EC50 (pEC50) of cGMP accumulation in MDCK cells [1] | EC50 of cGMP accumulation in MDCK cells [1] | relaxation of KCl pre-contracted endothelium-intact rat aortic rings (NPR-C (rat), P41740) | other results |
| --- | --- | --- | --- | --- | --- |
| R18-TNPc (peptide) | 0.5 | 6.78 | 700 nM | – | – |
| R32-TNPc (peptide) | 66.4 | 7.68 | 99.1 nM | – | – |
| S6, A7-TNPc (peptide) | 43.1 | 6.9 | 169 nM | – | – |
| S6, K7-TNPc (peptide) | 43.8 | 7.57 | 52.4 nM | – | – |
| hANP (peptide) | 66.5 | 8.79 | 16.4 nM | – | relaxation of KCl pre-contracted endothelium-denuded rat aortic rings (rat GC-A (rat)): 100%; relaxation of KCl pre-contracted endothelium-intact rat aortic rings (NPR-C (rat)): 100% |
| hBNP (peptide) | – | 9.16 | 0.906 nM | – | -Log10EC50 (pEC50) of cGMP accumulation in HeLa cells (NPR-A of HeLa cells): 6.92; EC50 of cGMP accumulation in HeLa cells (NPR-A of HeLa cells): 147 nM |
| rANP (from UniProt P01161 123-150) (peptide) | – | 8.76 | 8.47 nM | – | – |
| SDSKIGNGCFGFPLDRIGSVSGLGCNRIMQNPPKKFSGE (modifications not checked) [TNPc] | – | – | – | 100% | EC50 of cGMP accumulation in HeLa cells [2]: 0.124 M; -Log10 EC50 (pEC50) of cGMP accumulation in MDCK cells [3]: 6.93; EC50 of cGMP accumulation in MDCK cells [3]: 184 nM; mean relaxation of denuded aortic rings, % of KCl response (% of KCl response) (rat GC-A (rat), P18910): 55; relaxation of KCl pre-contracted endothelium-denuded rat aortic rings (rat GC-A (rat), P18910): 100% |
| SDSKIGDGCFGLPLDHIGSVSGLGCNRPVQNRPKK (modifications not checked) [TNPa] | – | – | – | 20% | – |
| SDPKIGDGCFGLPLDHIGSVSGLGCNRPVQNRPKK (modifications not checked) [TNPb] | – | – | – | 20% | – |
